Patent publication US20250084188A1 (CHUNGBUK NATIONAL UNIVERSITY INDUSTRY ACADEMIC COOPERATION …, published 2025)
Substitutions are numbered along the chain they refer to.

B1: D2 Fab clone (phage-displayed) (Fab, V domains shown)
VH: EVQLVESGGGLVQPGGSLRLSCAASGFTFSSYAMHWVRQAPGKGLEWVSAISSSSGTIYYADSVKGRFTISRDNSKNTLYLQMNSLRAEDTAVYYCAKDFGAVFDYWGQGTLVTVSS
VL: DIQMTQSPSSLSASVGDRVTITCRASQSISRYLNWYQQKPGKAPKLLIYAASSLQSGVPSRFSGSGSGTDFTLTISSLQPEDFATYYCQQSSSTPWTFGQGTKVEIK
B2: D2 (IgG) (antibody, V domains shown)
VH: B1 VH
VL: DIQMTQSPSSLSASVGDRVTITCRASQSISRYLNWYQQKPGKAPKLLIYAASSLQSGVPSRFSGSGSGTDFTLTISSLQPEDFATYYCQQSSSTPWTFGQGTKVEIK
notes: Converted into the IgG form of human antibodies, expressed in ExpiCHO-S
B3: F4 (IgG) (antibody, V domains shown)
VH: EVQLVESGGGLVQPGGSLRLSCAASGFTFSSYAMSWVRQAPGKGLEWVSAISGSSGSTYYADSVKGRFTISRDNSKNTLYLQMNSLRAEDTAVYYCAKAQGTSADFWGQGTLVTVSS
VL: DIQMTQSPSSLSASVGDRVTITCRASQSISRWLNWYQQKPGKAPKLLIYAASRLQSGVPSRFSGSGSGTDFTLTISSLQPEDFATYYCQQSYSTPWTFGQGTKVEIK
notes: as for B2
B4: H7 (IgG) (antibody, V domains shown)
VH: EVQLVESGGGLVQPGGSLRLSCAASGFTFSSYGMHWVRQAPGKGLEWVSGISSSGGSKYYADSVKGRFTISRDNSKNTLYLQMNSLRAEDTAVYYCAKHGHQQMDFWGQGTLVTVSS
VL: B3 VL with R31S, S91T, T94F
notes: as for B2
B5: F4 Fab clone (phage-displayed) (Fab, V domains shown)
VH: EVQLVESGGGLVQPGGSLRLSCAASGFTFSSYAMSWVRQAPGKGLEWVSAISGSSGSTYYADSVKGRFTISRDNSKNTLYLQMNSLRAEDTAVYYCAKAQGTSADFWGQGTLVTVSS
VL: B3 VL
B6: A7 Fab clone (phage-displayed) (Fab, V domains shown)
VH: B1 VH with S31D, H35S, A50G, S55G, D99A, F100I, A102S, V103W, F104A, Y106I
VL: B3 VL with S28D, R31N, W32Y, R53S, T94F, W96Y
B7: A7 (IgG) (antibody, V domains shown)
VH: B1 VH with S31D, H35S, A50G, S55G, D99A, F100I, A102S, V103W, F104A, Y106I
VL: B3 VL with S28D, R31N, W32Y, R53S, T94F, W96Y
notes: as for B2
B8: E7 (IgG) (antibody, V domains shown)
VH: EVQLVESGGGLVQPGGSLRLSCAASGFTFSSYAMHWVRQAPGKGLEWVSAISSSGGSIYYADSVKGRFTISRDNSKNTLYLQMNSLRAEDTAVYYCAKQGLSFDIWGQGTLVTVSS
VL: B3 VL with R31N, A51T, T94F, W96Y
notes: as for B2
B9: C5 Fab clone (phage-displayed) (Fab, V domains shown)
VH: EVQLVESGGGLVQPGGSLRLSCAASGFTFSSYAMSWVRQAPGKGLEWVSSISSSSGTTHYADSVKGRFTISRDNSKNTLYLQMNSLRAEDTAVYYCAKGGAFDYWGQGTLVTVSS
VL: B3 VL with S28D, R53T, T94F, W96L
B10: C5 (IgG) (antibody, V domains shown)
VH: B9 VH
VL: B3 VL with S28D, R53T, T94F, W96L
notes: as for B2
B11: 1E12 Fab clone (phage-displayed) (Fab, V domains shown)
VH: EVQLVESGGGLVQPGGSLRLSCAASGFTFSSYAMHWVRQAPGKGLEWVSAISSSGGTKYYADSVKGRFTISRDNSKNTLYLQMNSLRAEDTAVYYCAKGLQGGAGAFDIWGQGTLVTVSS
VL: B3 VL with R31N, W32Y, A51T, R53T, Q55H, T94F
B12: F2 Fab clone (phage-displayed) (Fab, V domains shown)
VH: EVQLVESGGGLAQPGGSLRLSCAASGFTFSSYAMHWVRQAPGKGLEWVSSIKSSGGSKNYADSVKGRFTISRDNSKNTLYLQMNSLRAEDTAVYYCAKGYGASFDFWGQGTLVTVSS
VL: B3 VL with S28D, R31S, S91A, T94F
B13: F2 (IgG) (antibody, V domains shown)
VH: B12 VH
VL: B3 VL with S28D, R31S, S91A, T94F
notes: as for B2
B14: 1E12 (IgG) (antibody, V domains shown)
VH: B11 VH
VL: B3 VL with R31N, W32Y, A51T, R53T, Q55H, T94F
notes: as for B2
B15: E7 Fab clone (phage-displayed) (Fab, V domains shown)
VH: B8 VH
VL: B3 VL with R31N, A51T, T94F, W96Y
B16: H7 Fab clone (phage-displayed) (Fab, V domains shown)
VH: B4 VH
VL: B3 VL with R31S, S91T, T94F
B17: A5 (IgG) (antibody, V domains shown)
VH: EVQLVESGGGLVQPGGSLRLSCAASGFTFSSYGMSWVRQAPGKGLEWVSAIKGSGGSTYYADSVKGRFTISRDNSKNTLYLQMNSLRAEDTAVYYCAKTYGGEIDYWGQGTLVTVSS
VL: B3 VL with A51T, R53T, T94F
notes: as for B2
B18: A5 Fab clone (phage-displayed) (Fab, V domains shown)
VH: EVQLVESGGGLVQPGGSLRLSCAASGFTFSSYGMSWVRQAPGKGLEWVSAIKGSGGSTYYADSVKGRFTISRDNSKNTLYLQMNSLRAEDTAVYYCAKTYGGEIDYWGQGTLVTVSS
VL: B3 VL with A51T, R53T, T94F
B19: H1 Fab clone (phage-displayed) (Fab, V domains shown)
VH: B1 VH with H35S, S52R, S55G, I58T, D99S, F100Q, G101S, A102T, F104A
VL: B3 VL with R31N, A51T, T94F, W96L
B20: H1 (IgG) (antibody, V domains shown)
VH: B1 VH with H35S, S52R, S55G, I58T, D99S, F100Q, G101S, A102T, F104A
VL: B3 VL with R31N, A51T, T94F, W96L
notes: as for B2

Columns and labels:
[1] = target: T1, human chitinase-3-like protein 1 (hCHI3L1) (human, UniProt P36222 22-383); experiment: monoclonal phage ELISA, phage-displayed Fab on CHI3L1
T1 construct: Antigen used for phage display panning and ELISA; also called YKL-40; CHI3L1 antigen protein

[2] = target: T1, human chitinase-3-like protein 1 …; experiment: ELISA, purified IgG on CHI3L1 antigen protein

T1 sequence (P36222 22-383 limits assumed): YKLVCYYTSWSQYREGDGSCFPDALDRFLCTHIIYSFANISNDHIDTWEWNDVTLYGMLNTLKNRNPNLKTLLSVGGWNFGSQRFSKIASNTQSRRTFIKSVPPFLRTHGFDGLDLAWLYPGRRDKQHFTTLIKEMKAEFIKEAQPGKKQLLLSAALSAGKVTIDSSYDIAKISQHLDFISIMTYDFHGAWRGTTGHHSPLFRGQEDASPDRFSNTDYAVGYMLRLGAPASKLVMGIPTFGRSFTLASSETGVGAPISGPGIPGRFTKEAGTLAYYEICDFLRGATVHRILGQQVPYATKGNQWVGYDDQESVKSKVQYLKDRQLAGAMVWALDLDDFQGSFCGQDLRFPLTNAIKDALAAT

Binder	binding result [1]	binding result [2]
B1	binds	
B2		binds
B3		binds
B4		binds
B5	binds	
B6	binds	
B7		binds
B8		binds
B9	binds	
B10		binds
B11	binds	
B12	binds	
B13		binds
B14		binds
B15	binds	
B16	binds	
B17		binds
B18	binds	
B19	binds	
B20		binds
